Measurements reported in PMC11078757, “Ligand efficacy modulates conformational dynamics of the µ-opioid receptor” (Nature, 2024).

Molecular target: T1, Gi1 heterotrimer (human Gαi1, Gβ1, Gγ2) (human, UniProt P63096 1-354; P62873 1-340; P59768 1-71)
T1 construct: Gαi1, human; Gβ1, human; Gγ2, cloned together with human Gβ1 in pFastBac Dual; Treated with λ protein phosphatase; Purified with 10 µM GDP; made nucleotide-free in the assay with apyrase where said; Residues of the 3C site may be left on Gβ1 after cleavage; also called G protein; source: Hi5 cells, baculovirus co-infection, purified (Ni-NTA, MonoQ; also SEC for DEER samples); not shown: His6, …
Assay: single-molecule FRET within the labelled receptor (TIRFM); 20 nM µOR–Cy3/Cy5 with 100 µM ligand incubated with 20 µM Gi1, then apyrase (nucleotide-free); complex immobilised via Flag tag, biotinylated M1 Fab and streptavidin; 25 °C, LMNG/CHS micelles, 100 ms frames
Settings: both partners purified

B1: µOR∆7(R182C/R273C) labelled with iodoacetamide-conjugated Cy3 and Cy5 (receptor)
chain: GPGNISDSSDPLAPASSSPAPGSWLNLSHVDGNQSDPSGPNRTGLGGSHSLSPQTGSPSMVTAITIMALYSIVCVVGLFGNFLVMYVIVRYTKMKTATNIYIFNLALADALATSTLPFQSVNYLMGTWPFGNILCKIVISIDYYNMFTSIFTLCTMSVDRYIAVTHPVKALDFRTPCNAKIVNVCNWILSSAIGLPVMFMATTKYRQGSIDCTLTFSHPTWYWENLLKICVFIFAFIMPVLIITVCYGLMILRLKSVRMLSGSKEKDCNLRRITRMVLVVVAVFIVCWTPIHIYVIIKALITIPETTFQTVSWHFCIALGYTNSCLNPVLYAFLDENFKRAFREFLIPTSSTIEQQNSARIRQNTREHPSTANTVDRTNHQLENLEAETAPLP
modifications: iodoacetamide-conjugated Cy3 and Cy5 on the introduced cysteines 182 and 273
notes: µ-opioid receptor, Mus musculus, residues 6-398, minimal-cysteine construct µOR∆7 with two introduced labelling cysteines; Tethered to the cover slip via its Flag tag, biotinylated M1 Fab and streptavidin; also called µOR–Cy3/Cy5; source: Sf9 insect cells, baculovirus, purified (Ni-NTA, anti-Flag M1 resin, SEC) in LMNG/CHS micelles; not shown: Flag, N-terminal, kept
Q: Does B1 bind?
A: binds
